The target in this assay is T1, His-tagged human calmodulin (recombinant) (human, UniProt P0DP24 1-149).
T1 construct: human calmodulin, CALM2 cDNA (OriGene SC125707) in a modified pET16b with a TEV site between the N-terminal polyhistidine tag and the protein; also called free calmodulin; recombinant calmodulin; not shown: polyhistidine, N-terminal, kept
The assay can be described thus: ELISA; competition: calmodulin immobilised, GST-DED1 held at its KD concentration, R4 peptide titrated; anti-GST AlexaFluor 488 detection. As to conditions: both partners purified.

A word on the IC50: it is the concentration at which inhibition is half-maximal.

B1: DED1 R4 peptide (peptide)
peptide: VRRFDLLKRILK
notes: cFLIP DED1 region 4, V62-K73, twelve amino acids; also called region 4; source: synthetic peptide (Tufts University Core Facility)
Regarding B1, the concentration for half-maximal inhibition (IC50) was determined as 63 µM.
